Reference: the RNAGym collection of RNA variant scans (doi:10.7554/elife.90254)

B1: OR4K15 (parent)
chain: GUUAACGGUCAUAGGCCAUGGAAACUAGGAGCACCAUUUCGCUGCCAGUGAAGAAAUGAACAAAGAAAAUCUGGGCCAGGCAGGCAUCAAAAGAAAUAGUCUUGCGCUCAACCAGAAAGUCUGUAAUCAUUUUAAGGGUA

Variants of: B1
Assay: self-cleavage, relative activity (ratio to wild type); higher = more cleavage; in vitro, sequencing; the parent is a self-cleaving ribozyme
In the case of GUUAACGGUCAUAGGCCAUGGAAACUAGGAGCAUCAUUUCGCUGCCAGUGAAGGAAUGAACAAAGAAAAUCUGGGCCAGGCAGGCAUCAAAAGAAAUAGUCUUGCGCUCAACCAGAAAGUCUGUAAUCAUUUUAAGGGUA, the self-cleavage is reported as 1.6.
Work on GUUAACGGUCAUGGGCCAUGGAAACUAGGAGCACCAUUUCGCUGCCAGUGAAGAAAUGAGCAAAGAAAAUCUGGGCCAGGCAGGCAUCAAAAGAAAUAGUCUUGCGCUCAACCAGAAAGUCUGUAAUCAUUUUAAGGGUA yielded a self-cleavage of 1.33.
GUUAACGGUCAUAGGCCAUGGAAACUAGGAGCACCAUUUCGCUGCCAGUGAAGAAAUGAACAAAGAAAACCUGGGCCAGGCAGGCAUCAAAAGAAAUAGUCUUGCGCUCAACCAGAUAGUCUGUAAUCAUUUUAAGGGUA gave a self-cleavage of 0.59.
GUUAACGGUCAUAGGCCAUGGAAACUAGGAGCACCAUUUCGCUGCCAGUGAAGAAACGAACAAAGAAAAUCUGGGCCAGGCAGGCACCAAAAGAAAUAGUCUUGCGCUCAACCAGAAAGUCUGUAAUCAUUUUAAGGGUA showed a self-cleavage of 0.63.
Variant GUUAACGGUCAUAGGCCAUGGAAACUAGGAGCACCAUGUCGCUGCCAGUGAAGAAAUGGACAAAGAAAAUCUGGGCCAGGCAGGCAUCAAAAGAAAUAGUCUUGCGCUCAACCAGAAAGUCUGUAAUCAUUUUAAGGGUA has a self-cleavage of 0.9.
Variant GUUAACGGUCAUAGGCCAUGGAAACUAGGAGCUCCAUUUCGCUGCCAGUGAAGAAAUGAACAAAGAAAAUCUGGGCCAGGCAGGCAUCAGAAGAAAUAGUCUUGCGCUCAACCAGAAAGUCUGUAAUCAUUUUAAGGGUA has a self-cleavage of 1.06.
GUUAACGGUCAUAGGCCAUGGAAACUAGGAGCACCAUUUCACUGCCAGUGAAGAAAUGAACAAAGAAAAUCUGGGCCAGGCAGGCAUCAAAAGAAAUAGUCUUGCGCUCAACCAGAAAGUCUGUAAUCAUUUUAAGGGUG showed a self-cleavage of 1.89.
With GUUAACGGUCAUAGGCCAUGGAAACUAGGAGCACCAUUUCGCUGCCAGUGAAGAAAUGAACAAAGAAAAUCUGGGCCAGGCAGGCAUCAAAAGAAAUAGUCUUGCGCUCAACCAGAAAGUCUGUAAUCAUUUUAAGGGAA the self-cleavage was 0.59.
For GUUAACGGUCAUAGGCCAUGGAAACUAGGAGCACCAUUUCGCUGCCAGUGUAGAAAUGAACAAAGAAAAUCUGUGCCAGGCAGGCAUCAAAAGAAAUAGUCUUGCGCUCAACCAGAAAGUCUGUAAUCAUUUUAAGGGUA, the self-cleavage was 0.25.
With GUUAACGGUCAUAGGCCAUGGAAACUAGGAGCACCAUUUCGCUGCCAGUGAAGAAAUGAACAAAGAAAAUCUGGGCCAGGCAGGCAUCAAAUGAAAUAGUCUUGCGCUCAACCAGAAAGUCUGUGAUCAUUUUAAGGGUA the self-cleavage was 0.58.
Work on GUCAACGGUCAUAGGCCAUGGAAACUAGGAGCACCAUUUCGCUGCCAGUGAAGAAAUGAACUAAGAAAAUCUGGGCCAGGCAGGCAUCAAAAGAAAUAGUCUUGCGCUCAACCAGAAAGUCUGUAAUCAUUUUAAGGGUA yielded a self-cleavage of 1.22.
GUUAACGGUCAUAGGCCAUGGAAACUAGGAGCACCAUUUCGCUGCCAGUGAAGAAAUGAACAAAGAAAUUCUGGGCCAGGCAGGCAUCAAAAGAAAUAGUCUUGCGCUCAACCAGAAAGUCUGUAAUCUUUUUAAGGGUA gave a self-cleavage of 1.23.
GUUAACGGUCAUAGGCCAUGGAAACUAGGAGCACCAUUUCGCUGCCAGUGACGAAAUGAACAAAGAAAAUCUGGUCCAGGCAGGCAUCAAAAGAAAUAGUCUUGCGCUCAACCAGAAAGUCUGUAAUCAUUUUAAGGGUA gave a self-cleavage of 0.33.
For GUUAACGGUCAUAGGCCAUGGAAACUAGGAGCACCAUUUCGCUGCCAGUGAAGAAAUGAACAAAGAAAAUCUGGGCCAGGCAGGCAUCAAAAGAAAUAGUCUUGCGCUUAACCAGAGAGUCUGUAAUCAUUUUAAGGGUA, the self-cleavage was 0.44.
Variant GUUAACGGUCAUAGGCCAUGGAAACUAGGAGCACCAUUUCGCUGCCAGUGAAGAGAUGAACAAAGAAAGUCUGGGCCAGGCAGGCAUCAAAAGAAAUAGUCUUGCGCUCAACCAGAAAGUCUGUAAUCAUUUUAAGGGUA has a self-cleavage of 0.78.
Work on GUUAACGGUCAUAGGCCAUGGAAACCAGGAGCACCAUUUCGCUGCCAGUGAAGAAAUGAACAAAGAAAAUCUGGGCCAGGCAGGCAUCAAAAGAAAUAGUCUUGCGCUCAACCAGAAAGUCUGUAAUCAUUUUAAAGGUA yielded a self-cleavage of 2.02.
Variant GUUAACGGUCAUGGGCCAUGGAAACUAGGAGCACCAUUUCGCUGCCGGUGAAGAAAUGAACAAAGAAAAUCUGGGCCAGGCAGGCAUCAAAAGAAAUAGUCUUGCGCUCAACCAGAAAGUCUGUAAUCAUUUUAAGGGUA has a self-cleavage of 0.13.
Work on GUUAACGGUCAUAGGCCAUGGAAACUAGGAGCACCAUUUCGCUGCCUGUGAAGAAAUGAACAAAGAAAAUCAGGGCCAGGCAGGCAUCAAAAGAAAUAGUCUUGCGCUCAACCAGAAAGUCUGUAAUCAUUUUAAGGGUA yielded a self-cleavage of 0.13.
GUUAACGGUCAUAGGCCAUGGAAACUAGGAGCACCAUUUCGCUGCCAGCGAAGAAAUGAACAAAGAAAAUCAGGGCCAGGCAGGCAUCAAAAGAAAUAGUCUUGCGCUCAACCAGAAAGUCUGUAAUCAUUUUAAGGGUA gave a self-cleavage of 0.15.
With GUUAACGGUCAUAGGCCAUGGAAACUAGGAGCACCAUUUCGCUGCCAGUGAAGAAAUGAACAAAGAAAAUCUGGGCCAGGCAGGCAUCAAAAGAAAUAGUCCUGCGCUCAACCAGAAAGUCUGUAACCAUUUUAAGGGUA the self-cleavage was 1.56.
For GUUAACGGUCAUAGGCCAUGGAAACUAGGAGCACCAUUUCGCUGCCAGUGAAGAAAUGAACAAAGAAAAUCUGGGCCAGGCAGGCAUCAAAAGAAAUAGUCUUGCGCUCAACCAGAAAGUCUGUAGUCAUUUUAAGGGAA, the self-cleavage was 0.
In the case of GUUAACGGUCAUAGGCCAUGGAAACUAGGAGCGCCAUUUCGCUGCCAGUGAAGAAAUGAACAAAGAAAAUCUGGGCCAGGCAGGCAACAAAAGAAAUAGUCUUGCGCUCAACCAGAAAGUCUGUAAUCAUUUUAAGGGUA, the self-cleavage is reported as 0.66.
GUUAACGGUCAUAGGCCAUGGAAACUAGGAGCACCAUUCCGCUGCCAGUGAAGAAAUGAACAAAGAAAAUCUGGGCCAGGCAGGCAUCAAAAGGAAUAGUCUUGCGCUCAACCAGAAAGUCUGUAAUCAUUUUAAGGGUA gave a self-cleavage of 1.34.
In the case of GUUAACGGUCACAGGCCAUGGAAACUAGGAGCACCAUUUCGCUGCCAGUGAAGAAAUGAACAAAGAAAAUCUGGGCCAGGCAGGCAUCAAAAGAAAUAGUCUUGCGCUCAACCAGAGAGUCUGUAAUCAUUUUAAGGGUA, the self-cleavage is reported as 1.33.
Work on GUUAACGGUCAUAGGCCAUGGAAACUAGGAGCACCAUUUCGCUGCCAGUGAAGAAAUGAACAAAGAAAAUCAGGGCCAGGCAGGCAUCAAGAGAAAUAGUCUUGCGCUCAACCAGAAAGUCUGUAAUCAUUUUAAGGGUA yielded a self-cleavage of 0.19.
GUUAACGGUCAUAGGCCAUGGAGACUAGGAGCACCAUUUCGCUGCCAGUGAAGAAAUGAACGAAGAAAAUCUGGGCCAGGCAGGCAUCAAAAGAAAUAGUCUUGCGCUCAACCAGAAAGUCUGUAAUCAUUUUAAGGGUA showed a self-cleavage of 0.87.
Work on GUUAACGGUCAUAGGCCAUGGAAACUAGAAGCACCAUUUCGCUGCCAGUGAAGAAAUGGACAAAGAAAAUCUGGGCCAGGCAGGCAUCAAAAGAAAUAGUCUUGCGCUCAACCAGAAAGUCUGUAAUCAUUUUAAGGGUA yielded a self-cleavage of 1.26.
GUUAACGGUCAUAGGCCAUGGGAGCUAGGAGCACCAUUUCGCUGCCAGUGAAGAAAUGAACAAAGAAAAUCUGGGCCAGGCAGGCAUCAAAAGAAAUAGUCUUGCGCUCAACCAGAAAGUCUGUAAUCAUUUUAAGGGUA showed a self-cleavage of 1.
GUUAACGGUCAUAGGCCAUGGAAACUAGGAGCACCAUUUCGCUGCCAGUGAAGAAAUGAACAAAGAAAAUCUGGGCCAGGCAGGGAUCAAAAGAAAUAGUCUUGCGCUCAACCAGAAAGUCUGUAAUCAUUUUAAGGGUA showed a self-cleavage of 1.18.
GUUAACGGUCAUAGGCCCUGGAAACUAGGAGCACCAUUUCGCUGCCAGUGAAGAAAUGAACAAAGAAAAUCUGGGCCAGGCAGGCAUCAAAAGAAAUAGUCUUGCGCUCAACCAGAAAGUCUGUAAUCAUUUUAAGGGUA showed a self-cleavage of 0.89.
In the case of GUUAACGGUCAUAGGCCAUGGAAACUAGGAGCACCAUUUCGCUGCCAGUGAAGAAAUGAACAAAGAAAAUCUGGGCCUGGCAGGCAUCAAAAGAAAUAGUCUUGCGCUCAACCAGAAAGUCUGUAAUCAUUUUAAGGGAA, the self-cleavage is reported as 0.5.
Variant GUUAACGGUCAUGGGCCAUGGAAACUAGGAGCACCAUUUCGCUGCCAGUGAAGAAAUGAACAAAGAAAACCUGGGCCAGGCAGGCAUCAAAAGAAAUAGUCUUGCGCUCAACCAGAAAGUCUGUAAUCAUUUUAAGGGUA has a self-cleavage of 0.87.
GUUAACGGUCAUAGGCCAUGGAAACUAGGAGCACCAUUUCGCUGCCAGUGAAGAAAUGAACAAAGAAAAUCUGGGCCAGGCAGGCAUCAAAAGAAAUAGUCUUGCGCUCAACCAGAAAGUCCGUAAUAAUUUUAAGGGUA gave a self-cleavage of 0.38.
GUUAACGGUCAUAGGCCAUGGAAACUAGGAGCACCAUUUCGCUGCCAGUGAAGAAAUGAACAAAGAAAAUCUGGGCCAGGCAGGCAUCAAAAGAAAUAGUCUUGCGCUCAACCAGAAAGUCUGUAACCCUUUUAAGGGUA showed a self-cleavage of 0.21.
GUUAACGGUCAUAGGCCAUGGAAACUAGGAGCACCGUCUCGCUGCCAGUGAAGAAAUGAACAAAGAAAAUCUGGGCCAGGCAGGCAUCAAAAGAAAUAGUCUUGCGCUCAACCAGAAAGUCUGUAAUCAUUUUAAGGGUA showed a self-cleavage of 1.19.
For GUUAACGGUCAUAGGCCAUGGAAACUAGGAGCACCAUUUCGCUGCCAGUGAAGAAAUGAACAAAGAAAACCUGGGCCAGGCAGGCAUCAAAAGAAAUAGUCUUGCGCUCAACCAGAAAGUCUGCAAUCAUUUUAAGGGUA, the self-cleavage was 0.27.
Variant GUUGACGGUCAUAGGCCAUGGAAACUAGGAGCACCAUUUCGCUGCCAGUGAAGAAAUGAACAAAGAAAAUCUGGGCCAGGCAGGCAUCAAAAGAAAUAGUCUUGCGCUCAACCAGAAAGUCUGUAAUCAUUUUGAGGGUA has a self-cleavage of 0.91.
Variant GUUAACGGUCAUAGGCCAUGGAAACUAGGAGCACCAUUUCGCUGCCAGUGAAGAAAUGAACAAAGAAUAUCUGGGCCAGGCAGGCAUCAAAAGAAAUAGUCUUGCGCUCAACCAGAAAGUCUGUAAUCAUUUUGAGGGUA has a self-cleavage of 1.78.
GUUUACGGUCAUAGGCCAUGGAAACUAGGAGCACCAUUUCGCUGCCAGUGAAGAAGUGAACAAAGAAAAUCUGGGCCAGGCAGGCAUCAAAAGAAAUAGUCUUGCGCUCAACCAGAAAGUCUGUAAUCAUUUUAAGGGUA showed a self-cleavage of 0.98.
For GUUAACGGUCAUAGGCCAUGGAAACUAGGAGCACCAUUUCGCUGCCUGUGAAGAAAUGAACAAAGAAAAUCUGGGCCAGGCAGGCAUCAAAAGGAAUAGUCUUGCGCUCAACCAGAAAGUCUGUAAUCAUUUUAAGGGUA, the self-cleavage was 1.22.
Variant GUUAACGGUCAUAGGCCAUGGAAACUAGGAGCACCAUUUCGCUGCCAGUGAAGAAAUGAACAGAGAAAAUCUGGGCCAGGCAGGCAUCAAAAGAAAUAGUCUUGCGCUCAACCAGAAAGACUGUAAUCAUUUUAAGGGUA has a self-cleavage of 0.94.
